Laboratory results taken from PMC4239642, “trans-Acting Arginine Residues in the AAA+ Chaperone ClpB Allosterically Regulate the Activity through Inter- and Intradomain Communication” (The Journal of Biological Chemistry, 2014).

Key:
[1] = target: cross-linked NBD1-M dimer with Walker B mutation E271Q in the cross-linked interface (Thermus thermophilus) (UniProt Q9RA63); test: SEC-MALS; Superdex 200 10/300 GL with multiangle static light scattering (SLS), buffer A (50 mM Tris/HCl pH 7.5, 50 mM KCl, 5 mM MgCl2, 2 mM EDTA); running buffer nucleotide-free or with 2 mM ADP or 2 mM ATP; 40 μl of 100 μM injected, about 2 μM at the detector; self-association induced by nucleotide; conditions: scale: NBD1-M subunits
[2] = target: cross-linked NBD1-M dimer with Walker B mutation E271Q in the free interface (Thermus thermophilus) (UniProt Q9RA63); test: as above; conditions: scale: NBD1-M subunits

stoichiometry N [1] | stoichiometry N [2] | Substance
4 |  | cross-linked NBD1-M dimer with Walker B mutation E271Q in the cross-linked interface (from UniProt Q9RA63 141-534; Q9RA63 141-534) (complex)
 | 4 | cross-linked NBD1-M dimer with Walker B mutation E271Q in the free interface (from UniProt Q9RA63 141-534; Q9RA63 141-534) (complex)
